Reference: PMC5013389, “Competition between members of the tribbles pseudokinase protein family shapes their interactions with mitogen activated protein kinase pathways” (Scientific Reports, 2016)

Molecular target: T1, MKK4-V1 (full length MKK4 fused to the V1 fragment of Venus YFP) (UniProt P45985 1-399)
T1 construct: source: HeLa, transfected, in live cells; not shown: Venus YFP fragment V1, C-terminal, kept
T1 sequence (looked up): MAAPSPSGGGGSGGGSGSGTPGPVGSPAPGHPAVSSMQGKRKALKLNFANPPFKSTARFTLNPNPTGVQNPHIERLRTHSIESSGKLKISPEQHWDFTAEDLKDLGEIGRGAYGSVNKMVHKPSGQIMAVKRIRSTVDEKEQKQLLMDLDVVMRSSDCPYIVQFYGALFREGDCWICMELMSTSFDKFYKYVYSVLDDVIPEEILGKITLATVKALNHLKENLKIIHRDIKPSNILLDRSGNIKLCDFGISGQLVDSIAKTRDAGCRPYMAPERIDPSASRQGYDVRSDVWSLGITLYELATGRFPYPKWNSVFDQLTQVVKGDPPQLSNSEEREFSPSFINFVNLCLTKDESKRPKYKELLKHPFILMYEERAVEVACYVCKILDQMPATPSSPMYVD
Assay: split reporter (BiFC, NanoBiT); competitive PCA in HeLa cells: MKK-V1 and TRIB-V2 co-transfected with an increasing dose of an untagged competitor plasmid (ERK, p38 or TRIB); mean fluorescence by flow cytometry 24 h after transfection; doses are plasmid amounts relative to TRIB-V2
Details: partners not purified

fold affinity to MKK4 relative to TRIB2: ~15 fold
B1: untagged TRIB-3 (natural protein, UniProt Q96RU7 1-358, looked up)
chain: MRATPLAAPAGSLSRKKRLELDDNLDTERPVQKRARSGPQPRLPPCLLPLSPPTAPDRATAVATASRLGPYVLLEPEEGGRAYQALHCPTGTEYTCKVYPVQEALAVLEPYARLPPHKHVARPTEVLAGTQLLYAFFTRTHGDMHSLVRSRHRIPEPEAAVLFRQMATALAHCHQHGLVLRDLKLCRFVFADRERKKLVLENLEDSCVLTGPDDSLWDKHACPAYVGPEILSSRASYSGKAADVWSLGVALFTMLAGHYPFQDSEPVLLFGKIRRGAYALPAGLSAPARCLVRCLLRREPAERLTATGILLHPWLRQDPMPLAPTRSHLWEAAQVVPDGLGLDEAREEEGDREVVLYG
notes: TRIB3, untagged expression plasmid; also called unlabelled tribbles; untagged tribbles; source: HeLa, transfected, in live cells
